Laboratory results published in patent publication US7812117B2, “Vasostatin as marrow protectant” (The United States of America as represented by the …, priority 1998, dated 2010).

What was measured:
[1] = tested on: murine Lin- bone marrow cells enriched with hematopoietic progenitors; assay: Proliferation of lineage-negative bone marrow population enriched for hematopoietic progenitors; format: cell-based, mouse
Description: FIG. 11 is a set of two bar graphs showing the proliferative responses of unseparated (FIG. 11A) and purified (FIG. 11B) bone marrow cell populations in response to vaso. Bone marrow cell populations, obtained from the femural cavities of C57BL/6NCR mice (9 weeks of age) were either used as such or were further purified by negative selection as lineage negative (CD5, CD45R, CD11b, Gr-1 and TER119) cells by magnetic cell depletion. Both cell populations were incubated (0.5×10^6 cells/ml) in culture medium supplemented with IL-3 (20 ng/ml) with or without vaso (10 μg/ml). Cell proliferation was measured by ^3H thymidine incorporation during the final 22 hr of a 4, 5 or 6-day (D) culture. Data shown reflects the mean of triplicate cultures.
The examples described above utilized unpurified populations of murine bone marrow cells derived from the femur. To characterize the cell or cells within the bone marrow cell population that are targets of stimulation by vaso, cell separation experiments were performed. […]
The effects of vaso were tested on this cell population that is enriched with murine hematopoietic cells, and compared with unseparated bone marrow populations. […] On days 4 and 5, cell proliferation was measured. […]

[2] = tested on: variety of cell and cell lines; assay: Proliferation of a variety of cells and cell lines (mononuclear cells, lymphoid, tumor lines, fibroblasts); format: cell-based, human; details: vaso 0.25 to 50 μg/ml
Text: Human mononuclear cells, and mononuclear cells enriched for B or T cells, were used in proliferation assays in the presence of phytohemagglutinin(Sigma), pokeweed mitogen (Sigma) or Epstein-Barr virus (B95-8 strain), as described previously (Tosato et al., 1988). The lymphoblastoid cell line VDS-0, the Burkitt cell lines CA46, BL41, KK124, Ag876, SHO (Cherney et al., 1997), the T-cell line Molt-4 (ATCC), the Hodgkin's lymphoma cell line Hs445 (ATCC); the prostate adenocarcinoma cell lines TSU-Prl (from A. Passaniti, NIH, Baltimore, Md.), Du145 (ATCC), and PC3 (ATCC), and the acute promyelocytic leukemia cell line HL60 (ATCC) were cultured in RPMI 1640 medium with 10% heat-inactivated FCS (BioWhittaker), […] L-glutamine (Sigma) and 5 μg/ml gentamicin, and tested in 3-5 days proliferation assays at cell densities varying from 300 to 2400 cells/microwell. The neuroblastoma cell line SKNMC (ATCC) was cultured in EMEM medium BioWhittaker) with 10% heat inactivated FCS and gentamicin and tested for proliferation at 125-1000 cells/well. The lung adenocarcinoma cell line A549 (ATCC) was cultured in F-12 Nutrient Mixture (HAM, Gibco BRL) with 10% heat-inactivated FCS, gentamicin and tested for proliferation at 250-2000 cells/well. […]

[3] = tested on: human Burkitt lymphoma cell line CA46; assay: CA46 tumor size and weight in irradiated BALB/c nu/nu mice treated with MBP or MBP-vaso; format: in vivo; details: 400 rad, CA46 s.c.; MBP 40 μg/mouse/day or MBP-vaso 60 μg/mouse/day s.c.
Description: To examine this further, 7 week old BALB/c nu/nu mice were first irradiated with 400 rad. After 24 hr, the mice were incoculated s.c. with the human Burkitt lymphoma cell line CA46. One group of mice (n=12) was treated s.c. with the control protein maltose binding protein (MBP, 40 μg/mouse/day), whereas another group (n=12) was treated s.c. with MBP-vaso (60 μg/mouse/day). Some of the mice from each group were killed on day 15, whereas the other mice were kept for up to 2.5 months.

B1: vaso: N-terminal domain of calreticulin (amino acids 1-180, SEQ ID NO:3); given as fusion protein with maltose binding protein, MBP-vaso (protein)
chain: EPAVYFKEQFLDGDGWTSRWIESKHKSDFGKFVLSSGKFYGDEEKDKGLQTSQDARFYALSASFEPFSNKGQTLVVQFTVKHEQNIDCGGGYVKLFPNSLDQTDMHGDSEYNIMFGPDICGPGTKKVHVIFNYKGKNVLINKDIRCKDDEFTHLYTLIVRPDNTYEVKIDNSQVESGSLE
modifications: Vasostatin
Q: Which “cell growth of murine bone marrow cells enriched for hematopoietic cells by negative selection” value ([1]; IL-3 alone or IL-3 together with IL-6 and Stem Cell Factor) does the source give for B1 here?
A: similarly stimulated cell growth

Q: What about the “increase in cell proliferation on day 5” value ([1]; enriched marrow, vaso 10 μg/ml, IL-3 20 ng/ml) of the same molecule?
A: 3.3 fold

Q: What about the “effects on proliferation of a variety of cell and cell lines” value [2] of the same molecule?
A: minimal stimulatory (or inhibitory) effects

Q: And the tumor size [3]?
A: 0.67 cm^2

Q: What about the tumor weight [3] of the same molecule?
A: 0.22 g
